According to US20060239990A1 (published 2006):

T1: retinoblastoma protein (RB), endogenous in cultured cell lines (293, U2OS) (human, UniProt P06400 2-928)
T1 construct: also called endogenous RB
T1 sequence (looked up): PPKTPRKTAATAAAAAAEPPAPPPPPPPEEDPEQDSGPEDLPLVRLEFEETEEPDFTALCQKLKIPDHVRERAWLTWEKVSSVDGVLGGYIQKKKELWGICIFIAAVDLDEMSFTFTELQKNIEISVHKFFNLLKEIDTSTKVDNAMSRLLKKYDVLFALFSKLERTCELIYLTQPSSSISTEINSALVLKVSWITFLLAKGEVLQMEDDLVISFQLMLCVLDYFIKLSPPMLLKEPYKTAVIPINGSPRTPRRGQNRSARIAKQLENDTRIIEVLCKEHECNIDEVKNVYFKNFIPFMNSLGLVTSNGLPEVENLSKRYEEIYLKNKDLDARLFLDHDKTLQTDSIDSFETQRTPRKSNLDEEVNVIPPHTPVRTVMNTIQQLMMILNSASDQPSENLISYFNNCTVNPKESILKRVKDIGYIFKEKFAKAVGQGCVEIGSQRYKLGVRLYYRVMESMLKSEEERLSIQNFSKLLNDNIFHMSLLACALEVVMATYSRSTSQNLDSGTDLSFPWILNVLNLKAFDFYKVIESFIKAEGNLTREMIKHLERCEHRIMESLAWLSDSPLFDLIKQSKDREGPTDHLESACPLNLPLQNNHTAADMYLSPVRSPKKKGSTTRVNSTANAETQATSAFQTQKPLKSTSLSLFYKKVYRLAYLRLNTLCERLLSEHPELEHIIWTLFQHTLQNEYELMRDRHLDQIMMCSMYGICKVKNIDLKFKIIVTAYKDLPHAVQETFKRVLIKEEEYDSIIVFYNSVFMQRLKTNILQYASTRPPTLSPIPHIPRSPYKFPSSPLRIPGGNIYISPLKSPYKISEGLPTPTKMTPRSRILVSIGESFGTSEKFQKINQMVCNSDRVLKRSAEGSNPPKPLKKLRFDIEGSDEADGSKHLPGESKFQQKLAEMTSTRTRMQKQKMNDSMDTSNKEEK

T2: mouse retinoblastoma protein (RB), endogenous in MEFs (mouse, UniProt P13405 2-921)
T2 sequence (looked up): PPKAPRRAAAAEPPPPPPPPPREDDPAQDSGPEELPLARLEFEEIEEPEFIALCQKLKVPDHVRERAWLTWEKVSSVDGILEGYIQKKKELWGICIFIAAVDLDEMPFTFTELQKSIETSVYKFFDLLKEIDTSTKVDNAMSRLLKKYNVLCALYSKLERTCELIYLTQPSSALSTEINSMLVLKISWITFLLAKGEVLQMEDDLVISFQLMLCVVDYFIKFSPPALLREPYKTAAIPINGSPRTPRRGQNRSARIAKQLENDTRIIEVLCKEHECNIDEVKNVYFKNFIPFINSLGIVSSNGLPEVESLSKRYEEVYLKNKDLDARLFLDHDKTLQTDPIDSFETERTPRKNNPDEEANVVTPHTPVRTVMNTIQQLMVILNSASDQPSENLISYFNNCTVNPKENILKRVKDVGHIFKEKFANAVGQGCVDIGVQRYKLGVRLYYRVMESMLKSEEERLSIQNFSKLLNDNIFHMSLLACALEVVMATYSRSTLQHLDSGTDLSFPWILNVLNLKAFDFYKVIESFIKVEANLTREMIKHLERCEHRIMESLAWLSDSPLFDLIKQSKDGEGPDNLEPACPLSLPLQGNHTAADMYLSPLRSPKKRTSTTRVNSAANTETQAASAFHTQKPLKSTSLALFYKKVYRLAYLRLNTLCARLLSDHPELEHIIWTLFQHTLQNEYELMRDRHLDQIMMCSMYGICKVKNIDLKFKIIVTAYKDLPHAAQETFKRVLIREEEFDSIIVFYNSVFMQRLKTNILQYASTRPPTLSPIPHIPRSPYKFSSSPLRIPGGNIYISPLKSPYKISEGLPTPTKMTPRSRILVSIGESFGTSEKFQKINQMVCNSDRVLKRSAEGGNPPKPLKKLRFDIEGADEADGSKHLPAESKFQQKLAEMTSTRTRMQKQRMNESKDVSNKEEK

B1: HA-tagged PRMT2 (human Protein Arginine N-Methyltransferase 2, expressed from pVR1012-PRMT2-HA) (enzyme)
chain: MATSGDCPRSESQGEEPAECSEAGLLQEGVQPEEFVAIADYAATDETQLSFLRGEKILILRQTTADWWWGERAGCCGYIPANHVGKHVDEYDPEDTWQDEEYFGSYGTLKLHLEMLADQPRTTKYHSVILQNKESLTDKVILDVGCGTGIISLFCAHYARPRAVYAVEASEMAQHTGQLVLQNGFADIITVYQQKVEDVVLPEKVDVLVSEWMGTCLLFEFMIESILYARDAWLKEDGVIWPTMAALHLVPCSADKDYRSKVLFWDNAYEFNLSALKSLAVKEFFSKPKYNHILKPEDCLSEPCTILQLDMRTVQISDLETLRGELRFDIRKAGTLHGFTAWFSVHFQSLQEGQPPQVLSTGPFHPTTHWKQTLFMMDDPVPVHTGDVVTGSVVLQRNPVWRRHMSVALSWAVTSRQDPTSQKVGEKVFPIWR
notes: Expressed by transient transfection in 293 or Saos 2 cells; also called HA-PRMT2; not shown: HA tag at the C-terminus
B2: mouse PRMT2 (untagged; endogenous in NIH3T3 cells, MEFs, GT1-7 cells and VSMC, or expressed from mouse PRMT2 cDNA in HEK293 cells) (enzyme, UniProt Q9R144 1-448, looked up)
chain: MEAPGEGPCSESQVIPVLEEDPVDYGCEMQLLQDGAQLQLQLQPEEFVAIADYTATDETQLSFLRGEKILILRQTTADWWWGERAGCCGYIPANHLGKQLEEYDPEDTWQDEEYFDSYGTLKLHLEMLADQPRTTKYHSVILQNKESLKDKVILDVGCGTGIISLFCAHHARPKAVYAVEASDMAQHTSQLVLQNGFADTITVFQQKVEDVVLPEKVDVLVSEWMGTCLLFEFMIESILYARDTWLKGDGIIWPTTAALHLVPCSAEKDYHSKVLFWDNAYEFNLSALKSLAIKEFFSRPKSNHILKPEDCLSEPCTILQLDMRTVQVPDLETMRGELRFDIQKAGTLHGFTAWFSVYFQSLEEGQPQQVVSTGPLHPTTHWKQTLFMMDDPVPVHTGDVVHGFCCVTKKSGMEKAHVCLSELGCHVRTRSHVSTELETGSFRSGGDS
notes: also called endogenous PRMT2
B3: mouse PRMT2-Flag (FLAG-tagged full-length PRMT-2) (enzyme, UniProt Q9R144 1-448, looked up)
chain: B2 chain
notes: Printed both as PRMT2-Flag and as Flag-PRMT2, so the end that carries the tag is uncertain; Expressed in HEK293 cells; also called Flag-PRMT2; Flag PRMT2 fusion protein; not shown: Flag tag
B4: IκB-α, endogenous in 293 cells (other, human, UniProt P25963 1-317, looked up)
chain: MFQAAERPQEWAMEGPRDGLKKERLLDDRHDSGLDSMKDEEYEQMVKELQEIRLEPQEVPRGSEPWKQQLTEDGDSFLHLAIIHEEKALTMEVIRQVKGDLAFLNFQNNLQQTPLHLAVITNQPEIAEALLGAGCDPELRDFRGNTPLHLACEQGCLASVGVLTQSCTTPHLHSILKATNYNGHTCLHLASIHGYLGIVELLVSLGADVNAQEPCNGRTALHLAVDLQNPDLVSLLLKCGADVNRVTYQGYSPYQLTWGRPSTRIQQQLGQLTLENLQMLPESEDEESYDTESEFTEFTEDELPYDDCVFGGQRLTL
notes: also called endogenous IκB-α

Tests used:
[1] = biological target: T1, retinoblastoma protein (RB), endogenous …; assay: immunoprecipitation of endogenous RB from 293 cells transfected with HA-tagged PRMT2, Western blot with anti-HA antibody
Procedure: FIG. 8A-C illustrate that PRMT2 interacts with retinoblastoma protein (RB). […] GST-RB and GST were bound to glutathione sepharose beads and incubated with S³⁵-labeled in vitro translated PRMT1, PRMT2, PRMT3, and PRMT4. Co-precipitated labeled PRMTs were analyzed by SDS-PAGE. […] HA-tagged PRMT2 (+) or control vectors (−) were transfected in 293 cells. Cell lysates were immunoprecipitated with rabbit RB antibodies or IgG and followed by Western blot analysis using mouse HA and RB antibodies (upper panel). A Western blot using mouse HA antibodies detects HA-tagged PRMT2 (lower panel).
The interaction of PRMT2 with RB was then analyzed in vivo. HA-tagged PRMT2 expression vectors or control vectors were transfected into 293 cells, and immunoprecipitation of endogenous RB was followed by a Western blot analysis using an anti-HA antibody. PRMT2 directly interacted with RB in contrast to control vectors (FIG. 8C).

RelA (p65) in 293 cells = biological target: T3, RelA (p65) in 293 cells (UniProt Q04206 1-551); assay: immunoprecipitation with anti-HA antibody from transfected 293 cells, immunoblot for p65
T3 construct: also called endogenous p65
T3 sequence (Q04206 whole entry): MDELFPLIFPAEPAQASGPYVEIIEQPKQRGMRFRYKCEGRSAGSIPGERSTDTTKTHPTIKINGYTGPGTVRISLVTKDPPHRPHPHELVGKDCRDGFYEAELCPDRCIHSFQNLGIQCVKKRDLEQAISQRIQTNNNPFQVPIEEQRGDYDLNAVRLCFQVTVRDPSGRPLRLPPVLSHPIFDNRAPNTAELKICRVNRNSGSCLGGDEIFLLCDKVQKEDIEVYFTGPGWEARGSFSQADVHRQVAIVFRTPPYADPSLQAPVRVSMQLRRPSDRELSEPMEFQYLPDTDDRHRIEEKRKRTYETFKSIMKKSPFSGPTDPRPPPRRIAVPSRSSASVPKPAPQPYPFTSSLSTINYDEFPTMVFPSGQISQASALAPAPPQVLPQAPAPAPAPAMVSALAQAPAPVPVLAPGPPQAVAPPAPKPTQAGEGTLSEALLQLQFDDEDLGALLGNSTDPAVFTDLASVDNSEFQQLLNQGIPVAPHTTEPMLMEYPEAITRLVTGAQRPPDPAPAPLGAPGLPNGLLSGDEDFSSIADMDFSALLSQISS
Text: (§1) To map IκB-α domains that interacted with PRMT2, 293 cells were transfected with HA-tagged PRMT2 (FIG. 5C) and His-tagged derivatives of the indicated IκB-α expression vectors (FIG. 5B) as indicated. 24 hrs later cells were harvested in cell lysis buffer and cell lysates were immunoprecipitated with agarose-conjugated antibody to His (IκB-α) (FIG. 5D, lanes 1-4) and HA (PRMT2) (FIG. 5D, lanes 5-6), fractionated by SDS-PAGE and analyzed by immunoblotting with antibody to HA to detect PRMT2 ((FIG. 5D lanes 1, 2 and lanes 5, 6) and His (FIG. 5D, lanes 3, 4). To map the region of PRMT2 that interacted with endogenous IκB-α and p65, 293 cells were transfected with HA-tagged PRMT2 (FIG. 5C) derivatives as indicated. Cells were harvested 24 hrs after transfection in cell lysis buffer, immunoprecipitated with agarose-conjugated antibody to HA to detect PRMT2 and derivatives (FIG. 5E, lanes 7-15), fractionated by SDS-PAGE and analyzed by immunoblotting with antibody to p65 (FIG. 5E, lanes 7-9), IκB-α (FIG. 5E, lanes 10-12) or HA (FIG. 5E, lanes 13-15).
A polyclonal antibody to recombinant PRMT2 was used to examine the association between endogenous PRMT2 and IκB-α in vivo. […] The domain of IκB-α required for association with PRMT2 was mapped using in vivo immunoprecipitation assays where HA-tagged PRMT2 was coexpressed with truncation mutants of His-tagged IκB-α (FIG. 5B) in 293 cells. The ankyrin domain was both necessary and sufficient for this association (FIG. 5D, lanes 1 and 2). The domain of PRMT2 that interacted with endogenous IκB-α was mapped by immunoprecipitation following expression HA-tagged PRMT2 truncation mutants (FIG. 5C). […] When the ratios of PRMT2 or PRMT2-A binding to IκB-α were compared, both interacted with IκB-α with similar affinity.

[2] = biological target: T2, mouse retinoblastoma protein (RB), …; assay: cell-based or functional assay
[3] = biological target: T4, mouse STAT3 (endogenous in GT1-7 cells and VSMC, or expressed from mouse STAT3 pcDNA3 in HEK293 cells) (mouse, UniProt P42227 2-770); assay: immunoprecipitation with anti-STAT3 antibody from GT1-7 cell extracts with or without leptin (100 nM), immunoblot with anti-PRMT-2 antibody
T4 sequence (P42227 2-770 limits assumed): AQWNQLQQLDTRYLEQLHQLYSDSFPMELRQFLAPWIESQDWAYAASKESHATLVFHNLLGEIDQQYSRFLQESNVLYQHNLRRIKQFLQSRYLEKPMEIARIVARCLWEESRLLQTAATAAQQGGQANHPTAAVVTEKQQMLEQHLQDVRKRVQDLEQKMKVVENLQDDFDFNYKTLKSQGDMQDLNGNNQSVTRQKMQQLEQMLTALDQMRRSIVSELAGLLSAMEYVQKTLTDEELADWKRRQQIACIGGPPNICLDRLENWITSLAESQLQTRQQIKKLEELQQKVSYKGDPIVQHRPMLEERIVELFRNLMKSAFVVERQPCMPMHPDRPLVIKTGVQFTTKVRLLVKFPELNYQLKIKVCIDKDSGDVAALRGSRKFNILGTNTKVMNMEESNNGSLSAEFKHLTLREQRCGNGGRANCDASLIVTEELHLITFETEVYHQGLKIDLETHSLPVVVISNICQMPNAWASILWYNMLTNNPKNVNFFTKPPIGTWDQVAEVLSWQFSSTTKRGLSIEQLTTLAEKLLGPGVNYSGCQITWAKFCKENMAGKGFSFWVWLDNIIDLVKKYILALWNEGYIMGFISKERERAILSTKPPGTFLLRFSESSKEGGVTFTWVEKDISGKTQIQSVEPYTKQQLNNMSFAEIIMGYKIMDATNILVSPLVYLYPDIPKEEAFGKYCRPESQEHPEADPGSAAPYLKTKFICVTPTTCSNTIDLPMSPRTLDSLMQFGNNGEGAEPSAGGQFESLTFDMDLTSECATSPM
Procedure: A mouse hypothalamic cell line, GT1-7, was established that expressed both STAT3 and PRMT-2 (FIG. 21B), and used as a cell model for the study of leptin signaling. To further examine whether leptin stimulated endogenous interaction between PRMT-2 and STAT3, extracts from the cells that were untreated or treated with mouse leptin (100 nM) were subjected to immunoprecipitation with anti-STAT3 antibody, followed by immunoblotting with anti-PRMT-2 antibody. […] However, treatment with leptin enhanced that amount PRMT-2 that co-precipitated with STAT3 (FIG. 21B, lane 3). PRMT-2 was not detectable in immunoprecipitates obtained with preimmune rabbit IgG (FIG. 21B, lane 1).

[4] = biological target: T5, STAT3, endogenous in HEK293 cells (human, UniProt P40763 2-770); assay: immunoprecipitation with anti-Flag antibody from transfected HEK293 cells, immunoblot
T5 construct: also called endogenous STAT3
T5 sequence (P40763 2-770 limits assumed): as the sequence (P42227 2-770 limits assumed) above, with D759E counted along it
Procedure: (§2) To examine whether a direct interaction occurs between PRMT-2 and STAT3 in vivo, FLAG-tagged full-length PRMT-2 cDNA and/or STAT3 cDNA were transiently transfected into HEK293 cells. After culturing the transfected cells, an immunoprecipitation was performed on cell lysates using anti-Flag antibodies followed by immunoblotting with anti-PRMT-2 antibody. […] Identical results were observed when using anti-STAT3 antibodies for immunoprecipitation (data not shown).

[5] = biological target: T4, mouse STAT3 (endogenous in GT1-7 cells …); assay: immunoprecipitation with anti-Flag antibody from HEK293 cells transfected with PRMT-2-Flag and STAT3, immunoblot
Procedure: as §2

[6] = biological target: B1; assay: immunoprecipitation with anti-HA antibody from transfected 293 cells, immunoblot for endogenous IκB-α
Text: as §1
A polyclonal antibody to recombinant PRMT2 was used to examine the association between endogenous PRMT2 and IκB-α in vivo. […] The domain of IκB-α required for association with PRMT2 was mapped using in vivo immunoprecipitation assays where HA-tagged PRMT2 was coexpressed with truncation mutants of His-tagged IκB-α (FIG. 5B) in 293 cells. […]

Binder: B1
binding result [1]: binds
binding result (RelA (p65) in 293 cells): no binding

Binder: B2
E2F reporter activity (E2F4B-Luc) in MEFs [2]: ~3 fold
binding result [3]: binds

Binder: B3
binding result [4]: binds
binding result [5]: binds

Binder: B4
binding result [6]: binds
